Experimental data: the supplement of paper PMC10065799, “High-throughput profiling of sequence recognition by tyrosine kinases and SH2 domains using bacterial peptide display” (eLife, 2023)

How the values were obtained:
SHP2-C SH2 = experiment: SH2 binding enrichment of the phosphorylated peptide, bacterial display (enrichment ratio); higher = better substrate or ligand; peptides without Tyr show the background
c-Src SH2 = experiment: as above
Grb2 SH2 = Grb2 SH2 (UniProt P62993); experiment: as above
Chain of Grb2 SH2 (P62993 whole entry, looked up): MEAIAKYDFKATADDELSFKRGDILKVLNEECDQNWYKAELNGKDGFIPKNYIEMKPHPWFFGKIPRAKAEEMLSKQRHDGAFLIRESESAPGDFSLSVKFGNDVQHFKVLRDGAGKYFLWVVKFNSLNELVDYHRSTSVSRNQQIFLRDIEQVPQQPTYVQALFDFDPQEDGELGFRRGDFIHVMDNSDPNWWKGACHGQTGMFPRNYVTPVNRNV

MERTK = MERTK (UniProt Q12866); experiment: phosphorylation enrichment, bacterial display (enrichment ratio); higher = better substrate or ligand; peptides without Tyr show the background
EPHB1 = EPHB1 (UniProt P54762); experiment: as above
Chain of EPHB1 (P54762 whole entry, looked up): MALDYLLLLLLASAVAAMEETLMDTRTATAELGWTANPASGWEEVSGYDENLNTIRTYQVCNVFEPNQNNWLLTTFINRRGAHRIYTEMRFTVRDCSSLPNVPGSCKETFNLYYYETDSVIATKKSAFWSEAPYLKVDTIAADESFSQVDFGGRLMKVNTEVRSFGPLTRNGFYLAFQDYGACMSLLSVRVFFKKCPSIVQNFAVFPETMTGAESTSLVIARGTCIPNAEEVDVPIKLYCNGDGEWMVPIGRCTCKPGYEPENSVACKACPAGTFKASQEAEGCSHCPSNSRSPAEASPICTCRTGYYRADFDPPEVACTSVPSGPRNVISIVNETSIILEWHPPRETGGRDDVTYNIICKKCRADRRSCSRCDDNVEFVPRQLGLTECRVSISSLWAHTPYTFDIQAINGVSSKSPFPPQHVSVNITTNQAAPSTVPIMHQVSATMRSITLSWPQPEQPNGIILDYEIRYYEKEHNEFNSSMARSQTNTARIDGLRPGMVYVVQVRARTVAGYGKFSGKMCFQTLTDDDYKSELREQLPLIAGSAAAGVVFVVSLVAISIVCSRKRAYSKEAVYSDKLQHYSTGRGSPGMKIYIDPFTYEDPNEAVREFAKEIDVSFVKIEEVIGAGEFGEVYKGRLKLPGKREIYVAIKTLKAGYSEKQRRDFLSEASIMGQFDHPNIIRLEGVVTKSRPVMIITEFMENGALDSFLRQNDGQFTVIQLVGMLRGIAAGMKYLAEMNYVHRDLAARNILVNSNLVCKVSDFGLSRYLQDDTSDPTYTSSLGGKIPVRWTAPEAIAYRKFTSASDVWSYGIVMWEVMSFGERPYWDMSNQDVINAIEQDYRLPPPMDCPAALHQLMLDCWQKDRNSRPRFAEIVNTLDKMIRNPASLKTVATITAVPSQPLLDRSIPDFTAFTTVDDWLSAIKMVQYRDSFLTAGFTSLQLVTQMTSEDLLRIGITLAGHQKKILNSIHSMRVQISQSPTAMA

Jak2 = Jak2 (UniProt O60674); experiment: as above
Chain of Jak2 (O60674 whole entry, looked up): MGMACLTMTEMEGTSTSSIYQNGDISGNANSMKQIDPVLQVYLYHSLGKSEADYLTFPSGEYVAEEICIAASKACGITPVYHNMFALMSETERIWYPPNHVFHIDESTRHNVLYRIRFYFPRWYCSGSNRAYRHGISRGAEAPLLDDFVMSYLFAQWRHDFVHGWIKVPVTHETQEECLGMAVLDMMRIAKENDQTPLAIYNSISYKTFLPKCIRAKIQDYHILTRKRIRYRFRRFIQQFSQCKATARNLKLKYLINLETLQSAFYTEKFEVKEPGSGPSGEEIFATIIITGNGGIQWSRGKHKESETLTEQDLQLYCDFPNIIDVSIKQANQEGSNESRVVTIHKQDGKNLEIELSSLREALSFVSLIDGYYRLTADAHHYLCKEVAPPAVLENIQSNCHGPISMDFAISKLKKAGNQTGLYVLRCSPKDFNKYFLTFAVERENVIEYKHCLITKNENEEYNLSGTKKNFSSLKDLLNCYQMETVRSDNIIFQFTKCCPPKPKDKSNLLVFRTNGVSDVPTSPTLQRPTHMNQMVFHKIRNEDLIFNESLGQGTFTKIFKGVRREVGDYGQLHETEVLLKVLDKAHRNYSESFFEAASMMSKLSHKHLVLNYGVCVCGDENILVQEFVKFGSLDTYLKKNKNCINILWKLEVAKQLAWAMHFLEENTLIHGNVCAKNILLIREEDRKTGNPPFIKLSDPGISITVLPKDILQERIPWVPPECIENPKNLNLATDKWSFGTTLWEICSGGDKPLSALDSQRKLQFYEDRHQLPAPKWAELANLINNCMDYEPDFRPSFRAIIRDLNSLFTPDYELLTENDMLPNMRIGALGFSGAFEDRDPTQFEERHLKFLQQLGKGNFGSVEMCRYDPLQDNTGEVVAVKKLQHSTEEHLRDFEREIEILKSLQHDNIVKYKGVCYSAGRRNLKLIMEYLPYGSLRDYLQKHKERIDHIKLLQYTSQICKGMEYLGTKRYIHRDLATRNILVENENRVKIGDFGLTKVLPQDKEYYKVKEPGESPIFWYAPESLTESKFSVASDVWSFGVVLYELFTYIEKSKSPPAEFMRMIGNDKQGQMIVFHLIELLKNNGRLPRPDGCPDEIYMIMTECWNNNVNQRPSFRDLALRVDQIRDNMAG

c-Src = experiment: as above
FGFR1 = FGFR1 (UniProt P11362); experiment: as above
Chain of FGFR1 (P11362 whole entry, looked up): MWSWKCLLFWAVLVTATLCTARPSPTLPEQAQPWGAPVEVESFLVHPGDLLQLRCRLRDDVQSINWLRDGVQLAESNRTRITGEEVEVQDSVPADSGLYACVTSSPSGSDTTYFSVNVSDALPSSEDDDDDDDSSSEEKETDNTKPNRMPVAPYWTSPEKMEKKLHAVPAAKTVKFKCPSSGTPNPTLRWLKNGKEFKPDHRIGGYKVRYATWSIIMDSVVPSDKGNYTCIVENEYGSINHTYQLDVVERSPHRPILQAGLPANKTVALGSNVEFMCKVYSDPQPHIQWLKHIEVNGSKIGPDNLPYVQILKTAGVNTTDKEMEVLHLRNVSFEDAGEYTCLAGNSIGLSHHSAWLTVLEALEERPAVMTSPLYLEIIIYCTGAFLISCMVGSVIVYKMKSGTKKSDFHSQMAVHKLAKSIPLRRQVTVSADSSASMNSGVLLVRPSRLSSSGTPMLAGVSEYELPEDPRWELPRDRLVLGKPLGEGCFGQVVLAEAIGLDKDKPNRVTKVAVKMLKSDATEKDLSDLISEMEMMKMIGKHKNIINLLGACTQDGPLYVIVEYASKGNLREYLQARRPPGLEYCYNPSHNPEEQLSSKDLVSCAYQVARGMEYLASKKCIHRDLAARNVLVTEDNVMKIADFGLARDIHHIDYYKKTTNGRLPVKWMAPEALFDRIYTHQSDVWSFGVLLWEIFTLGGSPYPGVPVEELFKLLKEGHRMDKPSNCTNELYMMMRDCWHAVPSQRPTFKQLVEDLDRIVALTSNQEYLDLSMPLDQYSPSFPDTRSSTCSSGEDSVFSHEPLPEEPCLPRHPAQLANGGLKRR

c-Abl (mouse) = experiment: as above
Hck = Hck (UniProt P08631); experiment: as above
AncSZ = experiment: as above
EPHB2 = EPHB2 (UniProt P29323); experiment: as above
FGFR3 = FGFR3 (UniProt P22607); experiment: as above
Chain of FGFR3 (P22607 whole entry, looked up): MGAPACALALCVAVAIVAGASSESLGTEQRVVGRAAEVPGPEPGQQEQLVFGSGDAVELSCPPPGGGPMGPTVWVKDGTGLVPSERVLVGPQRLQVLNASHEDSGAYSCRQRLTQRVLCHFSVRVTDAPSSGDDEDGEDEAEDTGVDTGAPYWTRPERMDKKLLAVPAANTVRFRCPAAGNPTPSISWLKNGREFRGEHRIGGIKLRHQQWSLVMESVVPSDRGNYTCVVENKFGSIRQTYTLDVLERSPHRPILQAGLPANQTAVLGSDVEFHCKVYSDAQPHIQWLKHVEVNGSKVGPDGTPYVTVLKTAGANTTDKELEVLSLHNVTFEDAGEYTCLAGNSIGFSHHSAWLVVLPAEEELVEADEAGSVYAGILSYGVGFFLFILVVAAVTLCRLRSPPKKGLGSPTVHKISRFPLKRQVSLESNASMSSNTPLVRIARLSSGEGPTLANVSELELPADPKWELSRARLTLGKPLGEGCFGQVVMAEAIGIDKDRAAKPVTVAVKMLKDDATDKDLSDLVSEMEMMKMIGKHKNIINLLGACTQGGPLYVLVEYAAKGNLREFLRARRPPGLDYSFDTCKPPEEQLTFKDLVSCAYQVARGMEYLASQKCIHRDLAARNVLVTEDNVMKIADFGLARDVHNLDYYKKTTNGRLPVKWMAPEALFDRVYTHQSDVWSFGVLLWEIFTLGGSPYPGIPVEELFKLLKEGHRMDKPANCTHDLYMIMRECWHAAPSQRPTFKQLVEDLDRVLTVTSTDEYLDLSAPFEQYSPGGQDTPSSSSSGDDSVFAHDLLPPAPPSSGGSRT

Fer (mouse) = experiment: as above
Fyn = Fyn (UniProt P06241); experiment: as above
Fes = Fes (UniProt P07332); experiment: as above
Chain of Fes (P07332 whole entry, looked up, the tested form may be a part): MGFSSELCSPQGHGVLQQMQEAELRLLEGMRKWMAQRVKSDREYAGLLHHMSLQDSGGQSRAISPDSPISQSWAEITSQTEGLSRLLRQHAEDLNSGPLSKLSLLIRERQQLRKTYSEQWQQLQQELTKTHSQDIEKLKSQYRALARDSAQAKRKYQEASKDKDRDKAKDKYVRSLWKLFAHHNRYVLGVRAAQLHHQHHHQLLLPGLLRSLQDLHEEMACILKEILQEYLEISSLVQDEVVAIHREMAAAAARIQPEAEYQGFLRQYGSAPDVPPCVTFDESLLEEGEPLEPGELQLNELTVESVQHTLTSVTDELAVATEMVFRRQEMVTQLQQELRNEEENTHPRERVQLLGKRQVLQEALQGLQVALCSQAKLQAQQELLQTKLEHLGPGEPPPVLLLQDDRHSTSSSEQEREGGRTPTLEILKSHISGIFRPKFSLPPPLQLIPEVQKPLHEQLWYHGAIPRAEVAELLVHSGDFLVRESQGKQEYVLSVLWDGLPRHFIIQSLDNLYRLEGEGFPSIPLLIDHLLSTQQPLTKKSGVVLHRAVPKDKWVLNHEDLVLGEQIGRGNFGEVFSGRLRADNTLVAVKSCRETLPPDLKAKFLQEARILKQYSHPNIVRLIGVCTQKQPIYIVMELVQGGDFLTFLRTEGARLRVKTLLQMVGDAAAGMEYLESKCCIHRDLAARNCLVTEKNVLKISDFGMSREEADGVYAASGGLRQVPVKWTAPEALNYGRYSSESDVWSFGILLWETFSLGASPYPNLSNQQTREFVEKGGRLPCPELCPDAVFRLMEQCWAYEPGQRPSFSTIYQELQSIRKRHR
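Throughout, for SH2 binding enrichment of the phosphorylated peptide, bacterial display: peptide library displayed on the E. coli surface as eCPX fusions, selected cells deep-sequenced, score is each peptide's frequency after selection divided by its frequency in the input.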
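Throughout, for phosphorylation enrichment, bacterial display: 11-residue human phosphosite peptides and single-mutation variants displayed on the E. coli surface, counted by deep sequencing, each peptide's frequency after selection divided by its frequency in the unselected input library; frequency after pTyr selection over input frequency; kinase dosed for 20-30% of maximal phosphorylation in three min.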

| Sequence | SH2 binding enrichment (SHP2-C SH2) | SH2 binding enrichment (c-Src SH2) | SH2 binding enrichment (Grb2 SH2) | phosphorylation enrichment (MERTK) | phosphorylation enrichment (EPHB1) | phosphorylation enrichment (Jak2) | phosphorylation enrichment (c-Src) | phosphorylation enrichment (FGFR1) | phosphorylation enrichment (c-Abl (mouse)) | phosphorylation enrichment (Hck) | phosphorylation enrichment (AncSZ) | phosphorylation enrichment (EPHB2) | phosphorylation enrichment (FGFR3) | phosphorylation enrichment (Fer (mouse)) | phosphorylation enrichment (Fyn) | phosphorylation enrichment (Fes) |
| --- | --- | --- | --- | --- | --- | --- | --- | --- | --- | --- | --- | --- | --- | --- | --- | --- |
| MCITQYERESQ [PRNP_Y218] | 0.632 | 0.591 | 0.935 | 0.485 | 0.419 | 0.654 | 0.394 | 0.491 | 0.648 | 0.447 | 0.837 | 0.495 | 0.557 | 0.453 | 0.496 | 0.895 |
| DFFDLYGGQKF [PTPN11_Y66_E69Q_YF] | 0.541 | 0.735 | 0.883 | 0.567 | 0.464 | 0.931 | 6.89 | 0.609 | 0.866 | 8.96 | 1.13 | 0.662 | 0.715 | 0.82 | 7.17 | 0.94 |
| KKLEVYQSIAD [MYBPC3_Y548] | 1.18 | 1.47 | 0.792 | 0.488 | 0.557 | 0.857 | 0.798 | 0.499 | 0.55 | 1.08 | 0.878 | 0.529 | 0.75 | 0.502 | 0.725 | 0.882 |
| RTLSEYARPHV [RERE_Y1259] | 0.532 | 0.553 | 0.755 | 0.443 | 0.832 | 0.871 | 0.454 | 0.606 | 31.7 | 0.683 | 1.14 | 0.852 | 0.51 | 0.468 | 0.668 | 1.11 |
| YRDALYKFMVD [PHEX_Y250] | 0.665 | 0.572 | 0.846 | 1.2 | 1.24 | 1.11 | 0.624 | 0.869 | 0.803 | 0.712 | 1.14 | 0.797 | 1.25 | 0.678 | 0.61 | 1.33 |
| YQCKHYACIRQ [TIMP3_Y182_S179C] | 4.01 | 2.39 | 1.74 | 0.46 | 0.371 | 0.55 | 0.362 | 0.336 | 0.514 | 0.275 | 0.601 | 0.363 | 0.455 | 0.399 | 0.347 | 0.662 |
| YGGLRYGYGVL [KRTAP20-2_Y13] | 1.09 | 0.707 | 1.07 | 0.497 | 0.415 | 0.658 | 1.64 | 0.559 | 0.536 | 1.42 | 0.671 | 0.608 | 0.518 | 0.448 | 1.25 | 0.741 |
| GQETSYIEDNC [PAH_Y24] | 0.559 | 0.68 | 1.05 | 0.466 | 0.83 | 1.15 | 0.515 | 0.452 | 0.74 | 0.666 | 1.47 | 0.758 | 0.769 | 0.51 | 0.507 | 1.28 |
| IFLADYRIMEG [ALOX12B_Y318_YF] | 1.12 | 0.987 | 1.16 | 0.478 | 0.454 | 0.782 | 0.528 | 0.814 | 0.641 | 0.421 | 0.689 | 0.523 | 0.787 | 0.453 | 0.408 | 0.984 |
| IKGIRYLHHRG [GUCY2D_Y656] | 0.966 | 1.01 | 1.39 | 0.376 | 0.423 | 0.597 | 0.439 | 0.348 | 0.497 | 0.344 | 0.466 | 0.358 | 0.363 | 0.432 | 0.415 | 0.469 |
| WKEREYEVVRD [CPS1_Y634_I632R] | 0.67 | 6.04 | 0.954 | 0.478 | 1.36 | 0.949 | 0.506 | 0.554 | 0.594 | 0.586 | 1.26 | 2.29 | 0.684 | 0.573 | 0.599 | 1.12 |
| PEVRRYVLPLN [RPE65_Y368] | 0.64 | 0.878 | 0.807 | 0.92 | 1.3 | 1.2 | 0.804 | 0.606 | 1.44 | 0.916 | 1.41 | 0.811 | 1.3 | 0.893 | 0.597 | 1.45 |
| YKPGFYNLKEK [LAMA1_Y490_C485Y] | 1.5 | 0.814 | 1.27 | 0.366 | 0.343 | 0.891 | 0.491 | 0.352 | 0.971 | 0.397 | 0.659 | 0.431 | 0.402 | 0.432 | 0.421 | 0.628 |
| GSSEDYLHMVH [NIPBL_Y247] | 0.556 | 0.465 | 0.743 | 0.485 | 0.475 | 0.874 | 0.524 | 1.07 | 0.646 | 0.449 | 0.978 | 0.473 | 1 | 0.416 | 0.423 | 0.874 |
| PRARTYCFKQE [KLHDC9_Y175_S171R_YF] | 1.12 | 1.35 | 1.38 | 0.355 | 0.345 | 0.435 | 0.458 | 0.395 | 0.591 | 0.502 | 0.519 | 0.301 | 0.517 | 0.383 | 0.421 | 0.458 |
